“And” between values parts separate entries of the source, which are not always exact repeats. Equal entries are not always repeated.
Key:
[1] = biological target: TRAIL R2 (recombinant, form not given) (human, UniProt O14763, biotin (in the capture ELISA and the competition ELISA of Example 14)); assay: SPR (ProteOn XPR36), TRAIL R2 immobilised, equilibrium analysis
[2] = biological target: recombinant Murine CD40L (E. coli produced) (murine, UniProt P27548); assay: biosensor competition: inhibition of Murine CD40L (0.5 µg/ml) binding to immobilised Murine CD40-Fc
[3] = biological target: Murine CD40L on the Th2 cell line D10.G4.1 (murine, UniProt P27548); assay: cell-based or functional assay
[4] = biological target: T1, TRAIL R2 expressed on the cell surface (human, UniProt O14763); assay: cell-based or functional assay
[5] = biological target: T1, TRAIL R2 expressed on the cell surface; assay: cell-based or functional assay; remark: listed apart in the source
[6] = biological target: T1, TRAIL R2 expressed on the cell surface; assay: cell-based or functional assay; remark: listed apart in the source
[7] = biological target: T1, TRAIL R2 expressed on the cell surface; assay: cell-based or functional assay; remark: listed apart in the source

B1: 1C12 (designed binder)
chain: AIEVKDVTDTTALITWAKPEKWDGSIYGCELAYGIKDVPGDRTTIDLNSRHTAYSIGNLKPDTEYEVSLICFTPYGAKSNPAKETFTTGGGTLGHHHHHHHH
[1]
  Kd: 4130 nM

B2: G3 (designed binder)
chain: AIEVKDVTDTTALITWAKPEKWDPPLWGCELAYGIKDVPGDRTTIDLNSRHTAYSIGNLKPDTEYEVSLICFTPYGAKSNPAKETFTTGGGTLGHHHHHHHH
[1]
  Fold Improvement (Kd, against lead clone 1C12): 10 fold
  Kd: 422 nM

B3: C3(M13) (designed binder)
chain: AIEVKDVTDTTALITWHDAFGYDFGCELTYGIKDVPGDRTTIDLPDHFHNYSIGNLKPDTEYEVSLICANDHGFDSNPAKETFTTGGGGSGGGGSGGGGSGGGGSGGGGSRLDAPGQIEVKDVTDTTALITWHDAFGYDFGCELTYGIKDVPGDRTTIDLPDHFHNYSIGNLKPDTEYEVSLICANDHGFDSNPAKETFTTGGGTLGHHHHHHHH
[2]
  IC50: 5 nM and 6 nM
[3]
  IC50, inhibition of Murine CD40L-induced CD86 expression on CD19 gated B cells: 100000 to 200000 nM

B4: A4(1E11) (designed binder)
chain: SGGGGSAIEVKDVTDTTALITWAKPWVDPPPLWGCELAYGIKDVPGDRTTIDLQQKHTAYSIGNLKPDTEYEVSLICFDPYGAKSNPAKETFTTGGGGSGGGGSGGGGSAIEVKDVTDTTALITWAKPWVDPPPLWGCELAYGIKDVPGDRTTIDLQQKHTAYSIGNLKPDTEYEVSLICFDPYGAKSNPAKETFTTGGGGSGGGGSGGGGSAIEVKDVTDTTALITWAKPWVDPPPLWGCELAYGIKDVPGDRTTIDLQQKHTAYSIGNLKPDTEYEVSLICFDPYGAKSNPAKETFTTGGGGSGGGGSGGGGSAIEVKDVTDTTALITWAKPWVDPPPLWGCELAYGIKDVPGDRTTIDLQQKHTAYSIGNLKPDTEYEVSLICFDPYGAKSNPAKETFTTGGGGSGGGGSGTGSAMASGGGGSAIEVKDVTDTTALITWAKPWVDPPPLWGCELAYGIKDVPGDRTTIDLQQKHTAYSIGNLKPDTEYEVSLICFDPYGAKSNPAKETFTTGGGGSGGGGSGGGGSAIEVKDVTDTTALITWAKPWVDPPPLWGCELAYGIKDVPGDRTTIDLQQKHTAYSIGNLKPDTEYEVSLICFDPYGAKSNPAKETFTTGGGGSGGGGSGTLGHHHHHHHH
[4]
  EC50, killing of H2122 cells: 0.0009 nM
  Maximum Inhibition %, H2122 cells: 97%

B5: A5(1E11) (designed binder)
chain: SGGGGSAIEVKDVTDTTALITWAKPWVDPPPLWGCELAYGIKDVPGDRTTIDLQQKHTAYSIGNLKPDTEYEVSLICFDPYGAKSNPAKETFTTGGGGSGGGGSGGGGSAIEVKDVTDTTALITWAKPWVDPPPLWGCELAYGIKDVPGDRTTIDLQQKHTAYSIGNLKPDTEYEVSLICFDPYGAKSNPAKETFTTGGGGSGGGGSGGGGSAIEVKDVTDTTALITWAKPWVDPPPLWGCELAYGIKDVPGDRTTIDLQQKHTAYSIGNLKPDTEYEVSLICFDPYGAKSNPAKETFTTGGGGSGGGGSGGGGSAIEVKDVTDTTALITWAKPWVDPPPLWGCELAYGIKDVPGDRTTIDLQQKHTAYSIGNLKPDTEYEVSLICFDPYGAKSNPAKETFTTGGGGSGGGGSGTGSAMASGGGGSAIEVKDVTDTTALITWAKPWVDPPPLWGCELAYGIKDVPGDRTTIDLQQKHTAYSIGNLKPDTEYEVSLICFDPYGAKSNPAKETFTTGGGGSGGGGSGGGGSAIEVKDVTDTTALITWAKPWVDPPPLWGCELAYGIKDVPGDRTTIDLQQKHTAYSIGNLKPDTEYEVSLICFDPYGAKSNPAKETFTTGGGGSGGGGSGGGGSAIEVKDVTDTTALITWAKPWVDPPPLWGCELAYGIKDVPGDRTTIDLQQKHTAYSIGNLKPDTEYEVSLICFDPYGAKSNPAKETFTTGGGGSGGGGSGGGGSAIEVKDVTDTTALITWAKPWVDPPPLWGCELAYGIKDVPGDRTTIDLQQKHTAYSIGNLKPDTEYEVSLICFDPYGAKSNPAKETFTTGGGGSGGGGSGTLGHHHHHHHH
[4]
  EC50, killing of H2122 cells: 0.0006 nM
  Maximum Inhibition %, H2122 cells: 97%

B6: A5(G6) (designed binder)
chain: SGGGGSAIEVKDVTDTTALITWAKPWVDPPPLWGCELAYGIKDVPGDRTTIDLQQKHTAYSIGNLKPDTEYEVSLICFDPYGMRSKPAKETFTTGGGGSGGGGSGGGGSAIEVKDVTDTTALITWAKPWVDPPPLWGCELAYGIKDVPGDRTTIDLQQKHTAYSIGNLKPDTEYEVSLICFDPYGMRSKPAKETFTTGGGGSGGGGSGGGGSAIEVKDVTDTTALITWAKPWVDPPPLWGCELAYGIKDVPGDRTTIDLQQKHTAYSIGNLKPDTEYEVSLICFDPYGMRSKPAKETFTTGGGGSGGGGSGGGGSAIEVKDVTDTTALITWAKPWVDPPPLWGCELAYGIKDVPGDRTTIDLQQKHTAYSIGNLKPDTEYEVSLICFDPYGMRSKPAKETFTTGGGGSGGGGSGTGSAMASGGGGSAIEVKDVTDTTALITWAKPWVDPPPLWGCELAYGIKDVPGDRTTIDLQQKHTAYSIGNLKPDTEYEVSLICFDPYGMRSKPAKETFTTGGGGSGGGGSGGGGSAIEVKDVTDTTALITWAKPWVDPPPLWGCELAYGIKDVPGDRTTIDLQQKHTAYSIGNLKPDTEYEVSLICFDPYGMRSKPAKETFTTGGGGSGGGGSGGGGSAIEVKDVTDTTALITWAKPWVDPPPLWGCELAYGIKDVPGDRTTIDLQQKHTAYSIGNLKPDTEYEVSLICFDPYGMRSKPAKETFTTGGGGSGGGGSGGGGSAIEVKDVTDTTALITWAKPWVDPPPLWGCELAYGIKDVPGDRTTIDLQQKHTAYSIGNLKPDTEYEVSLICFDPYGMRSKPAKETFTTGGGGSGGGGSGTLGHHHHHHHH
[5]
  IC50 of cell killing, 786-0 cells (CellTiter-Glo): > 10 nM
  IC50 of cell killing, BT-649 cells (CellTiter-Glo): > 10 nM
  IC50 of cell killing, CaCo-2 cells (CellTiter-Glo): 0.044 nM
  IC50 of cell killing, HPAF-II cells (CellTiter-Glo): 0.016 nM
  IC50 of cell killing, HT29 cells (CellTiter-Glo): 0.01 nM
  IC50 of cell killing, Hep3B cells (CellTiter-Glo): 0.023 nM
  IC50 of cell killing, Hep G2 cells (CellTiter-Glo): 0.04 nM
  IC50 of cell killing, Hs766T cells (CellTiter-Glo): > 10 nM
  IC50 of cell killing, LoVo cells (CellTiter-Glo): 0.005 nM
  IC50 of cell killing, NCI-H23 cells (CellTiter-Glo): > 10 nM
  IC50 of cell killing, NCI-H522 cells (CellTiter-Glo): > 10 nM
  IC50 of cell killing, SKHEP-1 cells (CellTiter-Glo): 0.055 nM
  IC50 of cell killing, SNB-75 cells (CellTiter-Glo): > 10 nM
  IC50 of cell killing, SNU-387 cells (CellTiter-Glo): > 10 nM
  IC50 of cell killing, SNU-398 cells (CellTiter-Glo): > 10 nM
  IC50 of cell killing, SNU-475 cells (CellTiter-Glo): > 10 nM
  IC50 of cell killing, SW820 cells (CellTiter-Glo): > 10 nM
  IC50 of cell killing, SW837 cells (CellTiter-Glo): > 10 nM
  IC50 of cell killing, T84 cells (CellTiter-Glo): 0.247 nM
[6]
  EC50, killing of Jurkat cells: 0.0001 nM
  Maximum Inhibition %, Jurkat cells: 100%
[7]
  EC50, killing of Colo205 cells: 0.0005 nM
  Maximum Inhibition %, Colo205 cells: 100%

B7: C4 (designed binder)
chain: AIEVKDVTDTTALITWAKPWVDPPPLWGCELAYGIKDVPGDRTTIDLQQKHTAYSIGNLKPDTEYEVSLICFDPYNKRNVPAKETFTTGGGTLGHHHHHHHH
[1]
  Fold Improvement (Kd, against lead clone 1C12): 83 fold
  Kd: 50 nM

B8: G6 (designed binder)
chain: AIEVKDVTDTTALITWAKPWVDPPPLWGCELAYGIKDVPGDRTTIDLQQKHTAYSIGNLKPDTEYEVSLICFDPYGMRSKPAKETFTTGGGTLGHHHHHHHH
[1]
  Fold Improvement (Kd, against lead clone 1C12): 96 fold
  Kd: 43 nM

B9: C2(M13) (designed binder)
chain: AIEVKDVTDTTALITWHDAFGYDFGCELTYGIKDVPGDRTTIDLPDHFHNYSIGNLKPDTEYEVSLICANDHGFDSNPAKETFTTGGGGSGGGGSGGGGSRLDAPGQIEVKDVTDTTALITWHDAFGYDFGCELTYGIKDVPGDRTTIDLPDHFHNYSIGNLKPDTEYEVSLICANDHGFDSNPAKETFTTGGGTLGHHHHHHHH
[2]
  IC50: 5 nM and 6 nM
[3]
  IC50, inhibition of Murine CD40L-induced CD86 expression on CD19 gated B cells: 100000 to 200000 nM

B10: C1(M13) (designed binder)
chain: AIEVKDVTDTTALITWHDAFGYDFGCELTYGIKDVPGDRTTIDLPDHFHNYSIGNLKPDTEYEVSLICANDHGFDSNPAKETFTTAGGGGSRLDAPGQIEVKDVTDTTALITWHDAFGYDFGCELTYGIKDVPGDRTTIDLPDHFHNYSIGNLKPDTEYEVSLICANDHGFDSNPAKETFTTGGGTLGHHHHHHHH
[2]
  IC50: 29 nM
[3]
  IC50, inhibition of Murine CD40L-induced CD86 expression on CD19 gated B cells: 100000 to 200000 nM

B11: M13 (M13) (designed binder)
chain: AIEVKDVTDTTALITWHDAFGYDFGCELTYGIKDVPGDRTTIDLPDHFHNYSIGNLKPDTEYEVSLICANDHGFDSNPAKETFTTGGGTLGHHHHHHHH
[2]
  IC50: 71 nM

B12: A3 (G6) (designed binder)
chain: SGGGGSAIEVKDVTDTTALITWAKPWVDPPPLWGCELAYGIKDVPGDRTTIDLQQKHTAYSIGNLKPDTEYEVSLICFDPYGMRSKPAKETFTTGGGGSGGGGSGGGGSAIEVKDVTDTTALITWAKPWVDPPPLWGCELAYGIKDVPGDRTTIDLQQKHTAYSIGNLKPDTEYEVSLICFDPYGMRSKPAKETFTTGGGGSGGGGSGGGGSAIEVKDVTDTTALITWAKPWVDPPPLWGCELAYGIKDVPGDRTTIDLQQKHTAYSIGNLKPDTEYEVSLICFDPYGMRSKPAKETFTTGGGGSGGGGSGGGGSAIEVKDVTDTTALITWAKPWVDPPPLWGCELAYGIKDVPGDRTTIDLQQKHTAYSIGNLKPDTEYEVSLICFDPYGMRSKPAKETFTTGGGGSGGGGSGTLGHHHHHHHH
[6]
  EC50, killing of Jurkat cells: 0.05 nM
  Maximum Inhibition %, Jurkat cells: 83%
[7]
  EC50, killing of Colo205 cells: 0.04 nM
  Maximum Inhibition %, Colo205 cells: 97%

Source: patent US9212231B2, “TRAIL R2-specific multimeric scaffolds” (MEDIMMUNE, LLC, dated 2015)
